In this assay the target is adaptor protein complex 2 (AP-2), P17426;Q9DBG3;P84091;P62743. In words: GST pull-down from brain lysate, immunoblot band quantification. The following applies: chain shown with the change; n = 3 independent experiments; parent: est. 1.0; read off a plot. A general note: In western blotting, separated proteins are transferred to a membrane and probed.

B1: GST-VGLUT1 C-terminus-WT (cytoplasmic C-terminal region of VGLUT1, a.a. 496-560), Q3TXX4 F510A; V511A (protein)
chain: PWAEPEEMSEEKCGAAGHDQLAGSDESEMEDEAEPPGAPPAPPPSYGATHSTVQPPRPPPPVRDY
In the case of B1, the ratio to parent stood at 0.19.

The record behind these values is article PMC8752090.
